The supplement of paper PMC9112550, “Optimization of the antimicrobial peptide Bac7 by deep mutational scanning” (BMC Biology, 2022)

Test system: Escherichia coli TOP10
Assay: shrunken log2 fold change of peptide-encoding DNA abundance (4.5 h post-induction vs induction); higher = less antimicrobial activity (less host growth inhibition)
Conditions: time post-induction: 4.5 h; library: site-saturation at positions 5, 18, 19, 20
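Also: peptides expressed intracellularly from a pBAD plasmid library in pooled LB shake-flask culture, induced with 0.3% L-arabinose, DNA abundance read by NGS, three biological replicates, DESeq2 with apeglm shrinkage.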

In order of falling “shrunken log2 fold change” value:
1. RRIRKRPPRLPRPRPRPWLGPRP  1.57
2. RRIRMRPPRLPRPRPRPDCHPRP  1.49
3. RRIRMRPPRLPRPRPRPENKPRP  1.48
4. RRIRMRPPRLPRPRPRPPTDPRP  1.21
5. RRIRARPPRLPRPRPRPPPMPRP  1.1
6. RRIRGRPPRLPRPRPRPPHWPRP  0.96
7. RRIRMRPPRLPRPRPRPGLPPRP  0.955
8. RRIRGRPPRLPRPRPRPGSGPRP  0.808
9. RRIRRRPPRLPRPRPRPTQKPRP  0.788
10. RRIRGRPPRLPRPRPRPLMMPRP  0.647
11. RRIRARPPRLPRPRPRPHWWPRP  0.5
12. RRIRGRPPRLPRPRPRPTMSPRP  0.496
13. RRIRGRPPRLPRPRPRPFARPRP  0.484
14. RRIRCRPPRLPRPRPRPIWWPRP  0.475
15. RRIRSRPPRLPRPRPRPRGLPRP  0.461
16. RRIRARPPRLPRPRPRPEIIPRP  0.396
17. RRIRWRPPRLPRPRPRPSPEPRP  0.383
18. RRIRKRPPRLPRPRPRPARQPRP  0.356
19. RRIRNRPPRLPRPRPRPTPSPRP  0.338
20. RRIRFRPPRLPRPRPRPQPWPRP  0.334
21. RRIRYRPPRLPRPRPRPPWRPRP  0.331
22. RRIRNRPPRLPRPRPRPRGSPRP  0.299
23. RRIRSRPPRLPRPRPRPTCFPRP  0.284
24. RRIRTRPPRLPRPRPRPTPHPRP  0.283
25. RRIRCRPPRLPRPRPRPSAMPRP  0.272
26. RRIRARPPRLPRPRPRPEWMPRP  0.252
27. RRIRRRPPRLPRPRPRPVRHPRP  0.247
28. RRIRQRPPRLPRPRPRPEPKPRP  0.244
29. RRIRARPPRLPRPRPRPKCRPRP  0.237
30. RRIRERPPRLPRPRPRPTGLPRP  0.235
31. RRIRTRPPRLPRPRPRPNPTPRP  0.207
32. RRIRWRPPRLPRPRPRPDPNPRP  0.196
33. RRIRLRPPRLPRPRPRPEGMPRP  0.194
34. RRIRFRPPRLPRPRPRPVTKPRP  0.19
35. RRIRVRPPRLPRPRPRPPCFPRP  0.17
36. RRIRLRPPRLPRPRPRPGLNPRP  0.15
37. RRIRCRPPRLPRPRPRPLEGPRP  0.15
38. RRIRQRPPRLPRPRPRPQPWPRP  0.141
39. RRIRVRPPRLPRPRPRPRFVPRP  0.12
40. RRIRMRPPRLPRPRPRPCKFPRP  0.12
41. RRIRHRPPRLPRPRPRPWRGPRP  0.115
42. RRIRKRPPRLPRPRPRPDNMPRP  0.107
43. RRIRWRPPRLPRPRPRPEARPRP  0.106
44. RRIRERPPRLPRPRPRPQSWPRP  0.104
45. RRIRCRPPRLPRPRPRPAVYPRP  0.0903
46. RRIRHRPPRLPRPRPRPNWGPRP  0.0702
47. RRIRTRPPRLPRPRPRPMASPRP  0.0589
48. RRIRQRPPRLPRPRPRPSHLPRP  0.049
49. RRIRMRPPRLPRPRPRPFPIPRP  0.0281
50. RRIRGRPPRLPRPRPRPADYPRP  0.025
51. RRIRKRPPRLPRPRPRPCNRPRP  0.0247
52. RRIRERPPRLPRPRPRPKGPPRP  0.0237
53. RRIRDRPPRLPRPRPRPENMPRP  0.0225
54. RRIRLRPPRLPRPRPRPDFAPRP  0.0202
55. RRIRYRPPRLPRPRPRPQSWPRP  0.0202
56. RRIRYRPPRLPRPRPRPDYQPRP  0.0202
57. RRIRERPPRLPRPRPRPFQNPRP  0.02
58. RRIRMRPPRLPRPRPRPYVSPRP  0.013
59. RRIRVRPPRLPRPRPRPEPIPRP  0.0124
60. RRIRHRPPRLPRPRPRPVQWPRP  0.0118
61. RRIRGRPPRLPRPRPRPQFKPRP  0.0112
62. RRIRMRPPRLPRPRPRPMMEPRP  0.00973
63. RRIRCRPPRLPRPRPRPTPYPRP  0.00933
64. RRIRKRPPRLPRPRPRPEDDPRP  0.00862
65. RRIRNRPPRLPRPRPRPWGNPRP  0.00408
66. RRIRQRPPRLPRPRPRPESMPRP  0.00186
67. RRIRNRPPRLPRPRPRPIMHPRP  0.00105
68. RRIRDRPPRLPRPRPRPGHEPRP  -0.00201
69. RRIRARPPRLPRPRPRPMVMPRP  -0.00579
70. RRIRQRPPRLPRPRPRPADCPRP  -0.00699
71. RRIRNRPPRLPRPRPRPNHGPRP  -0.0113
72. RRIRTRPPRLPRPRPRPAYCPRP  -0.0119
73. RRIRPRPPRLPRPRPRPNCPPRP  -0.0126
74. RRIRQRPPRLPRPRPRPKWGPRP  -0.0154
75. RRIRDRPPRLPRPRPRPCMEPRP  -0.0179
76. RRIRCRPPRLPRPRPRPDITPRP  -0.022
77. RRIRQRPPRLPRPRPRPDKVPRP  -0.0238
78. RRIRTRPPRLPRPRPRPYRLPRP  -0.0268
79. RRIRQRPPRLPRPRPRPITCPRP  -0.0276
80. RRIRGRPPRLPRPRPRPWDNPRP  -0.0364
81. RRIRCRPPRLPRPRPRPPNTPRP  -0.0497
82. RRIRMRPPRLPRPRPRPQILPRP  -0.0502
83. RRIRPRPPRLPRPRPRPGYRPRP  -0.051
84. RRIRERPPRLPRPRPRPPIFPRP  -0.0515
85. RRIRCRPPRLPRPRPRPPQYPRP  -0.0607
86. RRIRVRPPRLPRPRPRPWHVPRP  -0.0616
87. RRIRNRPPRLPRPRPRPEFFPRP  -0.064
88. RRIRCRPPRLPRPRPRPQCSPRP  -0.0788
89. RRIRPRPPRLPRPRPRPIMRPRP  -0.0819
90. RRIRPRPPRLPRPRPRPDRDPRP  -0.0875
91. RRIRHRPPRLPRPRPRPLTAPRP  -0.0931
92. RRIRGRPPRLPRPRPRPNKLPRP  -0.096
93. RRIRQRPPRLPRPRPRPNQKPRP  -0.0966
94. RRIRRRPPRLPRPRPRPWFCPRP  -0.101
95. RRIRGRPPRLPRPRPRPNNRPRP  -0.112
96. RRIRCRPPRLPRPRPRPLTAPRP  -0.119
97. RRIRRRPPRLPRPRPRPRECPRP  -0.12
98. RRIRTRPPRLPRPRPRPAFNPRP  -0.121
99. RRIRYRPPRLPRPRPRPNAEPRP  -0.122
100. RRIRCRPPRLPRPRPRPWLKPRP  -0.133
101. RRIRIRPPRLPRPRPRPAALPRP  -0.134
102. RRIRNRPPRLPRPRPRPNQCPRP  -0.136
103. RRIRYRPPRLPRPRPRPPMKPRP  -0.137
104. RRIRCRPPRLPRPRPRPSRMPRP  -0.144
105. RRIRNRPPRLPRPRPRPIWNPRP  -0.146
106. RRIRFRPPRLPRPRPRPMLQPRP  -0.152
107. RRIRIRPPRLPRPRPRPRCRPRP  -0.164
108. RRIRSRPPRLPRPRPRPPMIPRP  -0.17
109. RRIRIRPPRLPRPRPRPMPGPRP  -0.172
110. RRIRCRPPRLPRPRPRPCRFPRP  -0.178
111. RRIRKRPPRLPRPRPRPHQVPRP  -0.182
112. RRIRPRPPRLPRPRPRPYKAPRP  -0.183
113. RRIRLRPPRLPRPRPRPKTQPRP  -0.189
114. RRIRPRPPRLPRPRPRPDEFPRP  -0.203
115. RRIRFRPPRLPRPRPRPYAGPRP  -0.208
116. RRIRTRPPRLPRPRPRPVISPRP  -0.21
117. RRIRSRPPRLPRPRPRPNRHPRP  -0.219
118. RRIRFRPPRLPRPRPRPVIDPRP  -0.225
119. RRIRNRPPRLPRPRPRPSCEPRP  -0.229
120. RRIRRRPPRLPRPRPRPSYMPRP  -0.257
121. RRIRTRPPRLPRPRPRPSYAPRP  -0.274
122. RRIRKRPPRLPRPRPRPLFIPRP  -0.291
123. RRIRFRPPRLPRPRPRPHWTPRP  -0.301
124. RRIRCRPPRLPRPRPRPTNSPRP  -0.336
125. RRIRHRPPRLPRPRPRPSYGPRP  -0.34
126. RRIRSRPPRLPRPRPRPTNVPRP  -0.358
127. RRIRERPPRLPRPRPRPMVMPRP  -0.368
128. RRIRWRPPRLPRPRPRPTNSPRP  -0.39
129. RRIRSRPPRLPRPRPRPTYLPRP  -0.399
130. RRIRVRPPRLPRPRPRPWGTPRP  -0.402
131. RRIRTRPPRLPRPRPRPFLVPRP  -0.404
132. RRIRTRPPRLPRPRPRPHKNPRP  -0.415
133. RRIRTRPPRLPRPRPRPQIQPRP  -0.418
134. RRIRSRPPRLPRPRPRPKINPRP  -0.424
135. RRIRCRPPRLPRPRPRPYCLPRP  -0.442
136. RRIRTRPPRLPRPRPRPLIFPRP  -0.446
137. RRIRPRPPRLPRPRPRPSNQPRP  -0.45
138. RRIRHRPPRLPRPRPRPYTNPRP  -0.461
139. RRIRTRPPRLPRPRPRPHHTPRP  -0.474
140. RRIRERPPRLPRPRPRPYLVPRP  -0.529
141. RRIRQRPPRLPRPRPRPLSVPRP  -0.539
142. RRIRNRPPRLPRPRPRPDPFPRP  -0.582
143. RRIRPRPPRLPRPRPRPQYEPRP  -0.583
144. RRIRYRPPRLPRPRPRPSHNPRP  -0.628
145. RRIRTRPPRLPRPRPRPQYTPRP  -0.697
146. RRIRFRPPRLPRPRPRPTYTPRP  -0.719
147. RRIRIRPPRLPRPRPRPNKDPRP  -0.818
148. RRIRSRPPRLPRPRPRPCSFPRP  -0.825
149. RRIRQRPPRLPRPRPRPPYYPRP  -0.829
150. RRIRLRPPRLPRPRPRPCYLPRP  -0.856
